Experiment [1] has as its target T1, monkey Trop2 protein (Sino Biological, #90893-C08H) (monkey, UniProt A0A2K5UE71 27-274).
T1 construct: bought protein; also called monkey Trop2 protein antigen (His tag)
T1 sequence: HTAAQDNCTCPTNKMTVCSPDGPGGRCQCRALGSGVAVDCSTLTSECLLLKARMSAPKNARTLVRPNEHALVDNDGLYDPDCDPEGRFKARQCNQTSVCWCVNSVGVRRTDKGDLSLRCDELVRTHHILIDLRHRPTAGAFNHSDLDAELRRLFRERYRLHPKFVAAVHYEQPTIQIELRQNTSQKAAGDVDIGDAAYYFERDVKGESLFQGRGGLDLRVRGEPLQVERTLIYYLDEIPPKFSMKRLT
Kind of experiment: BLI, Octet RED96; ratio against KD for human Trop2 protein. The procedure: (§1) Specifically, a human TROP2 protein (Sino Biological, #10428-H08H) or a monkey Trop2 protein (Sino Biological, #90893-C08H) was diluted to 200 nM with a PBS buffer (pH 7.4) containing 0.1% (w/w) BSA and 0.02% (v/v) tween 20, and incubated with the AHC sensor respectively. 40 nM Trop2 antibody was incubated at 30° C. for 3 min with the AHC sensor loaded with the human Trop2 protein or monkey Trop2 protein respectively. The reaction mixture was incubated at 30° C. for another 5 min in a PBS buffer (pH 7.4) containing 0.1% (v/w) BSA and 0.02% (v/v) Tween 20. The association and dissociation signals between the Trop2 antibody and the human Trop2 protein or monkey Trop2 protein were recorded by Octet Red 96 in real time. The affinity and the association and dissociation constants were determined by Octet using software.

For the next experiment, the target named is T2, human Trop2 on cells (human, UniProt P09758 27-323).
T2 construct: whole, on cells; also called hTrop2; 293T-human Trop2 cells
T2 sequence (looked up): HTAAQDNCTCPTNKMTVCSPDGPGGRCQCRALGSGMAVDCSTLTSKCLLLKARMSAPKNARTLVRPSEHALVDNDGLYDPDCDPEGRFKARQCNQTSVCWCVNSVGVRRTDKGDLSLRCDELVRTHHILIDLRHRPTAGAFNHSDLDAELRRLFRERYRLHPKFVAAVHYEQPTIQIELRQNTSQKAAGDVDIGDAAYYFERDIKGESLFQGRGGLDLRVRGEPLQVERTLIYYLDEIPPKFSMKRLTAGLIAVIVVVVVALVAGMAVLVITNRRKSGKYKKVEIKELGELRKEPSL
Description: flow cytometry on 293T-human Trop2 cells. The procedure: The cell density was determined, and the cells were resuspended to 1×10⁶ cells/mL in PBS. 100 μL of cell suspension was taken from each well and added to a 96 well V-bottom plate. The 96-well V-bottom plate was centrifuged at 1000 rpm for 5 min and washed once with PBS+0.5% BSA (VWR, #0332-100G). […] After 1 h, the cells were washed twice with PBS+0.5% BSA. The cells were incubated with 100 μL of Alexa Fluor 488 goat anti-human IgG (Life technologies, 1:1000, #A-11013) at 4° C. for 1 h in the dark, and washed twice with PBS+0.5% BSA. The cells were resuspended in 200 μL of PBS+0.5% BSA. The fluorescence intensity of the cells was analyzed using a FACS verse flow cytometer. All procedures were performed on ice.
(In general: A flow cytometer gives signals particle by particle.)

Experiment [2] deals with T3, human TROP2 protein (Sino Biological, #10428-H08H) (human, UniProt P09758 27-274).
T3 construct: bought protein; also called human Trop2 protein antigen (His tag); not shown: His tag
T3 sequence (looked up): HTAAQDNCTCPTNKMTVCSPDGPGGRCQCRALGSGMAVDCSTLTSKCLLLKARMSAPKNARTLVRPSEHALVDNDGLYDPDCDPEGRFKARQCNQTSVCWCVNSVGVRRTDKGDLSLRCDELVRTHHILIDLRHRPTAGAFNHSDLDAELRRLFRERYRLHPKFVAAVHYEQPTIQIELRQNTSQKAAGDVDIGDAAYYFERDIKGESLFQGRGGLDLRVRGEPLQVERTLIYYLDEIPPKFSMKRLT
Kind of experiment: BLI, Octet RED96, AHC sensor. The procedure:
as §1
(BLI is a label-free optical method that tracks binding on a fibre tip over time.)

The target of experiment [3] is T1, monkey Trop2 protein (Sino Biological, …). Kind of experiment: BLI, Octet RED96, AHC sensor. The procedure: as §1

These results are taken from patent publication US20240067748A1 (NONA BIOSCIENCES SUZHOU, published 2024).

For orientation: EC50 means the concentration needed to bring the measured effect to its halfway point. One may read the Kd as a measure of binding affinity in units of concentration. The koff is the first-order rate constant of dissociation. For orientation: kon means the rate constant with which the complex forms.

B1: PR001164 (antibody, human IgG1, kappa, V domains shown)
VH: QVQLQQSGPGLVKPSQTLSLTCAISGDSVSSTSAVWNWIRQSPSRGLEWLGRTCYRSKWYNDYAVSVKSRITITPDTSKNQFSLRLNPVTPEDTAVYYCARGDFRFDSWGQGTLVTVSS
VL: DIQLTQSPSFLSASVGDRVTITCRASQGISSYLAWYQQKPGKAPKLLIYAASTLQSGVPSRFSGSGSGTEFTLTISSLQPEDFATYYCQQVKIYPLTFGGGTKVEIKR
notes: fully human IgG1/kappa; also called antibody No. (25)
Take B1: the “KD (monkey)/KD (human)” value in experiment [1] came out at 0.85. Further, in the experiment with human Trop2 on cells, the EC50 amounted to 2.4 nM, the “Maximum (MFI)” value stood at 8950 MFI and the Top % is 138%. In experiment [2], this molecule showed a Kd of 2.41 nM, a Response of 0.194, a koff of 0.000262 s⁻¹ and a kon of 109000 M⁻¹ s⁻¹. In experiment [3], this molecule returned a Kd of 2.04 nM, a Response of 0.173, a koff of 0.000162 s⁻¹ and a kon of 79400 M⁻¹ s⁻¹.

B2: PR001143 (antibody, human IgG1, kappa, V domains shown)
VH: QVQLVESGGGVVQPGRSLRVSCAASGFIFSTYGMHWVRQAPGKGLEWVAVIWYDGSNEDYVDSVKGRFTISRDNSKNTLYLQMNSLRGEDTAVYYCARGGYNSGWWAFDVWGQGTLVTVSS
VL: DIQMTQSPSSLSASVGDRVTITCRASQGISHFLAWYQQKPGKVPKLLIYAASTLQSGVPSRFSGSGSGTDFTLTISSLQPEDVATYYCQKFNSAPLTFGGGTKVEIKR
notes: fully human IgG1/kappa; also called antibody No. (10)
On to B2, for which the “KD (monkey)/KD (human)” value in experiment [1] is 1.78. Besides, in the experiment with human Trop2 on cells, the midpoint of the response, the EC50, lay at 0.795 nM; the “Maximum (MFI)” value came out at 6300 MFI; the Top % was found to be 97.2%. In experiment [2], this molecule showed a Kd of 6.94 nM, a Response of 0.335, a koff of 0.000556 s⁻¹ and a kon of 80100 M⁻¹ s⁻¹. In experiment [3], this molecule had a Kd of 12.4 nM, a Response of 0.308, a koff of 0.000645 s⁻¹ and an on-rate (kon) of 52100 M⁻¹ s⁻¹.

B3: PR001168 (antibody, human IgG1, kappa, V domains shown)
VH: QVQLVESGGGVVQPGRSLRLSCATSGFIFSSYGMHWVRQAPGKGLDWVAVIWYDGSNKYYADSVKGRFTISRDNSKNTLYLQMNSLRVEDTAVYYCARETSSWYVGYLQHWGQGTLVTVSS
VL: EIVMTQSPATLSVSPGERVSLSCRASQSVNGNVAWYQQKPGQAPRLLIYAASTRATGIPARFSGSGSGTESTLTISSLQSEDCAVYYCQQYNNWPSTFGPGTKLEVTR
notes: fully human IgG1/kappa; also called antibody No. (28)
As for B3, the “KD (monkey)/KD (human)” value in experiment [1] was found to be 1.54. Also, in the experiment with human Trop2 on cells, the EC50 came to 0.669 nM, the “Maximum (MFI)” value was determined as 6780 MFI and the Top % worked out at 105%. For the same molecule, in experiment [2], binding was put at a Kd of 1.59 nM, the Response was 0.333, the koff amounted to 0.00014 s⁻¹ and the kon was determined as 88000 M⁻¹ s⁻¹. In addition, in experiment [3], binding was characterised by a dissociation constant (Kd) of 2.45 nM, the Response came to 0.311, the koff is 0.000145 s⁻¹ and the kon was 59300 M⁻¹ s⁻¹.

B4: PR001153 (antibody, human IgG1, kappa, V domains shown)
VH: QVQLQESGPGLVKPSGTLSLTCAVSGGSISSSNWWSWVRQPPGKGLEWIGEIYHDGSTDYNPSLKSRVIISVDKSKNQFSLKVRSVTAADTAVYYCARDNWGFDYWGQGTLVTVSS
VL: EIVLTQFPGTLSLSPGERATLSCRSSQSVSSSYLAWYQQKPGQAPRLLISGASSRATGIPDRFSGSGSGTDFTLTISRLEPEDFAVYYCQQYGSSPRTFGQGTKVEIKR
notes: fully human IgG1/kappa; also called antibody No. (16)
Regarding B4, in experiment [1], the “KD (monkey)/KD (human)” value was found to be 5.61. In addition, in the experiment with human Trop2 on cells, the response was half-maximal at 2.47 nM (EC50), the “Maximum (MFI)” value worked out at 6940 MFI and the Top % stood at 107%. In addition, in experiment [2], the affinity, expressed as Kd, was 0.0323 nM; the Response was determined as 0.381; the “fold lower KD than the reference antibody Tab (hRS7)” value is around 10 fold; the koff was determined as 2.53e-06 s⁻¹. The same molecule gave a kon in experiment [2] of 78600 M⁻¹ s⁻¹. In experiment [3], this molecule came in with a Kd of 0.181 nM, a Response of 0.337, a koff of 1.07e-05 s⁻¹ and a kon of 59300 M⁻¹ s⁻¹.
